These results are taken from paper PMC11238991.

Assay [1] deals with cleaved-αA (human αA-crystallin made as his-SUMO fusion, tag removed by ulp-1) (human) (UniProt P02489). Nature of the assay: SEC; analytical; 2.0 mg/mL of each variant on Superose 6 Increase in 20 mM Tris-HCl pH 7.8, 150 mM NaCl, 0.25 mL/min; molar mass from protein standards, number of subunits predicted from it; three experiments.
Assay [2] deals with recombinant human αA-crystallin (αA) (human) (UniProt P02489). Described as above.

recombinant human αA-crystallin (αA), sequence (P02489 whole entry): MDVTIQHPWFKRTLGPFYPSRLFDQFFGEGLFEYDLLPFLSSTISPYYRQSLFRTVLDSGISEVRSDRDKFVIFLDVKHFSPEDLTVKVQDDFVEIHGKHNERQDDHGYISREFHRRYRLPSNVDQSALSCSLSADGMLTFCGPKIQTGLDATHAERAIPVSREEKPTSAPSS
cleaved-αA (human αA-crystallin made as his-SUMO fusion, tag removed by ulp-1), sequence (P02489 whole entry, the tested form may be a part): as the sequence (P02489 whole entry) above

As to “cleaved-αA (human αA-crystallin made as his-SUMO fusion, tag removed by ulp-1) (from UniProt P02489 1-173) (natural protein)”, the stoichiometry N in assay [1] was 13 to 22 subunits.
As for “recombinant human αA-crystallin (αA) (from UniProt P02489 1-173) (natural protein)”, in assay [2], the stoichiometry N was 27 to 32 subunits.
